Target: Ccc1(1-109), truncated recombinant fragment of Ccc1 that contains its chromodomain (Cryptococcus neoformans)
Assay: fluorescence polarisation

Kd [µM]	Substance
28	unlabeled Cryptococcus H3K27me3 peptide
119	unlabeled Cryptococcus H3K27me2 peptide
